Measured values: publication PMC11881899, “Structural insights into promoter-proximal pausing of RNA polymerase II at +1 nucleosome”

Key:
[1] = target: RNA polymerase II (RNAPII) (Sus scrofa); assay: EMSA; 0.1 uM RNAPII; RNAPII-only EC; EMSA: 20 mM Hepes-NaOH pH 7.5, 5 mM MgCl2, 5% glycerol (buffer J); final 75 mM NaCl, 50 mM KOAc, 0.33 uM Zn(OAc)2, 4 uM ZnCl2; 30 min at 4 C; native 3-8% Tris-acetate PAGE; settings: protein: native; tags: none; copies: 1;1;1;1;1;1;1;1;1;1;1;1; label: Alexa Fluor 647 on primer RNA; template DNA, nontemplate DNA and primer RNA
[2] = target: RNA polymerase II (RNAPII);DSIF (SPT4/SPT5);NELF wild type (NELF-A/B/C/E) (Sus scrofa;human;human, UniProt A0A8D1DPV6;A0A4X1TVZ5;P19387;O15514;A0A4X1VTX4;P61218;P62487;P52434;P36954;P6287 …, ||); assay: EMSA; 0.1 uM RNAPII, 0.4 uM DSIF, 0.4 uM NELF; complete shift; EMSA: 20 mM Hepes-NaOH pH 7.5, 5 mM MgCl2, 5% glycerol (buffer J); final 75 mM NaCl, 50 mM KOAc, 0.33 uM Zn(OAc)2, 4 uM ZnCl2; 30 min at 4 C; native 3-8% Tris-acetate PAGE; settings: protein: native;recombinant;recombinant; tags: none;N-His SPT4 (His tag TEV-cleaved); C-Strep SPT5;NELF-C C-His6; NELF-E N-FLAG; copies: 1;1;1;1;1;1;1;1;1;1;1;1;1;1;1;1;1;1; label: Alexa Fluor 647 on primer RNA; template DNA, nontemplate DNA and primer RNA
[3] = target: RNA polymerase II (RNAPII);DSIF (SPT4/SPT5) (Sus scrofa;human, UniProt A0A8D1DPV6;A0A4X1TVZ5;P19387;O15514;A0A4X1VTX4;P61218;P62487;P52434;P36954;P6287 …, |); assay: EMSA; 0.1 uM RNAPII, 0.4 uM DSIF; lower mobility than RNAPII-only EC; EMSA: 20 mM Hepes-NaOH pH 7.5, 5 mM MgCl2, 5% glycerol (buffer J); final 75 mM NaCl, 50 mM KOAc, 0.33 uM Zn(OAc)2, 4 uM ZnCl2; 30 min at 4 C; native 3-8% Tris-acetate PAGE; settings: protein: native;recombinant; tags: none;N-His SPT4 (His tag TEV-cleaved); C-Strep SPT5; copies: 1;1;1;1;1;1;1;1;1;1;1;1;1;1; label: Alexa Fluor 647 on primer RNA; template DNA, nontemplate DNA and primer RNA
[4] = target: RNA polymerase II (RNAPII);DSIF (SPT4/SPT5);NELF 3E mutant (Sus scrofa;human;human, UniProt A0A8D1DPV6;A0A4X1TVZ5;P19387;O15514;A0A4X1VTX4;P61218;P62487;P52434;P36954;P6287 …, ||K23E;K27E;K34E); assay: EMSA; 0.1 uM RNAPII, 0.4 uM DSIF, 0.4 uM NELF 3E; complex forms similar to wild type; EMSA: 20 mM Hepes-NaOH pH 7.5, 5 mM MgCl2, 5% glycerol (buffer J); final 75 mM NaCl, 50 mM KOAc, 0.33 uM Zn(OAc)2, 4 uM ZnCl2; 30 min at 4 C; native 3-8% Tris-acetate PAGE; settings: protein: native;recombinant;recombinant; tags: none;N-His SPT4 (His tag TEV-cleaved); C-Strep SPT5;NELF-C C-His6; NELF-E N-FLAG; copies: 1;1;1;1;1;1;1;1;1;1;1;1;1;1;1;1;1;1; label: Alexa Fluor 647 on primer RNA; template DNA, nontemplate DNA and primer RNA

Measured: binding result

B1: DNA/RNA scaffold (EMSA) (mixed)
RNA: UUUUUAUCGAGAGGUAC
DNA 1: CCAAGATGTCAACTCTACCGATAAGCAGACGTACCTCTCGAT
DNA 2: CTGCTTATCGGTAGAGTTGACATCTTGG
binds: [1] | [2] | [3] | [4]
